B1: PTAR1 in the crystallised GGTase3-FBXL2-SKP1 complex (natural protein)
chain: MAETSEEVAVLVQRVVKDITNAFRRNPHIDEIGLIPCPEARYNRSPIVLVENKLGVESWCVKFLLPYVHNKLLLYRTRKQWLNRDELIDVTCTLLLLNPDFTTAWNVRKELILSGTLNPIKDLHLGKLALTKFPKSPETWIHRRWVLQQLIQETSLPSFVTKGNLGTIPTERAQRLIQEEMEVCGEAAGRYPSNYNAWSHRIWVLQHLAKLDVKILLDELSSTKHWASMHVSDHSGFHYRQFLLKSLISQTVIDSSVMEQNPLRSEPALVPPKDEEAAVSTEEPRINLPHLLEEEVEFSTDLIDSYPGHETLWCHRRHIFYLQHHLNAGSQLSQAMEVDGLNDSSKQGYSQETKRLKRTPVPDSLGLEMEHRFIDQVLSTCRNVEQARFASAYRKWLVTLSQ

Tests used:
[1] = biological target: T1, FBXL2 in the crystallised GGTase3-FBXL2-SKP1 complex (human, UniProt Q9UKC9 1-423); test: crystal structure
T1 sequence: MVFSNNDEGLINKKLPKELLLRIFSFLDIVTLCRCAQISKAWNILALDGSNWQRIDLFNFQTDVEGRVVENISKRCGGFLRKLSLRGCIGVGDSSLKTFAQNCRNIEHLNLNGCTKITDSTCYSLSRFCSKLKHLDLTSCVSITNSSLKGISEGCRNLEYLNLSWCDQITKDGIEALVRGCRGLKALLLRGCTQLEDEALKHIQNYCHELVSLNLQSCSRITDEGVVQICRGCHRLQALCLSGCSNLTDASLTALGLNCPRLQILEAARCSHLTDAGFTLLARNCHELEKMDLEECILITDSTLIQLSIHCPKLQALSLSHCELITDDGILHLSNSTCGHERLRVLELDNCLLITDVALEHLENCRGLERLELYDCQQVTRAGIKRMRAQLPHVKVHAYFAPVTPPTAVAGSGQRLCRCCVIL

[2] = biological target: B1; test: crystal structure

Binder	binding result [1]	binding result [2]
B1	binds	
RabGGTB in the crystallised GGTase3-FBXL2-SKP1 complex (natural protein) MGTPQKDVIIKSDAPDTLLLEKHADYIASYGSKKDDYEYCMSEYLRMSGIYWGLTVMDLMGQLHRMNREEILAFIKSCQHECGGISASIGHDPHLLYTLSAVQILTLYDSINVIDVNKVVEYVKGLQKEDGSFAGDIWGEIDTRFSFCAVATLALLGKLDAINVEKAIEFVLSCMNFDGGFGCRPGSESHAGQIYCCTGFLAITSQLHQVNSDLLGWWLCERQLPSGGLNGRPEKLPDVCYSWWVLASLKIIGRLHWIDREKLRNFILACQDEETGGFADRPGDMVDPFHTLFGIAGLSLLGEEQIKPVNPVFCMPEEVLQRVNVQPELVS		binds

— article PMC6609460 (Nature structural & molecular biology, 2019)
